Changes are numbered by the printed parent chain. Numbers in names are those of the source.
Key:
split reporter = molecular target: the molecule itself; test: split reporter
crystal structure = molecular target: the molecule itself; test: crystal structure

B1: CXE15 C14D fused to split YFP (enzyme, Arabidopsis thaliana, UniProt Q9FG13 1-329, looked up)
chain: MGSLGEEPQVAEDDMGLLQLLSNGTVLRSESIDLITQQIPFKNNQTVLFKDSIYHKPNNLHLRLYKPISASNRTALPVVVFFHGGGFCFGSRSWPHFHNFCLTLASSLNALVVSPDYRLAPEHRLPAAFEDAEAVLTWLWDQAVSDGVNHWFEDGTDVDFDRVFVVGDSSGGNIAHQLAVRFGSGSIELTPVRVRGYVLMGPFFGGEERTNSENGPSEALLSLDLLDKFWRLSLPNGATRDHHMANPFGPTSPTLESISLEPMLVIVGGSELLRDRAKEYAYKLKKMGGKRVDYIEFENKEHGFYSNYPSSEAAEQVLRIIGDFMNNLS
fold reduction of BiFC fluorescence against wild-type CXE15 (split reporter): > 2 fold

B2: CXE15 E271Q mutant (enzyme, Arabidopsis thaliana, UniProt Q9FG13 1-329, looked up)
chain: B1 chain with D14C, E271Q
modifications: disulphide bond between the two Cys14 residues in the crystal
binding result (crystal structure): binds
